Test results published in patent US20090325883A1 (LES LABORATOIRES SERVIER, published 2009).

Target: T1, Bcl-XL (UniProt Q07817 1-209)
T1 construct: also called anti-apoptotic member Bcl-XL
Experiment: fluorescence polarisation competition; 15 nM Bak BH3 carboxyfluorescein, 100 nM Bcl-XL

T1 sequence (Q07817 1-209): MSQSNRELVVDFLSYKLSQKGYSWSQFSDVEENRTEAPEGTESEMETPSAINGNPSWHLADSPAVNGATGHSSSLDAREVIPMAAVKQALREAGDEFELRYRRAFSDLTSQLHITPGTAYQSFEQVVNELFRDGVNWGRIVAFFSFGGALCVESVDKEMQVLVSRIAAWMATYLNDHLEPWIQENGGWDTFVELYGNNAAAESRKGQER

Binder | Ki [µM]
VMTQEVGQLLQDMGDDVYQQYRSL (also called peptide b)) [Kiaa 1578 peptide] | 32
DMWDTRIAKLRVSADSFVRQQEA (also called peptide d)) [Loc 51569 peptide] | 8
MATVIHNPLKALGDQFYKEAIEHC (also called peptide a)) [Cerd4 peptide] | 9
RLKHSCLLALKRAADLLGQRSSST (also called peptide c)) [Genematch peptide] | 1
VATRRLSGFLRTLADRLEGTKELL (also called peptide e)) [Mina53 peptide] | 20
